{"source": "patent US20200317803A1", "about": "“ANTI-CD73, ANTI-PD-L1 ANTIBODIES AND CHEMOTHERAPY FOR TREATING TUMORS” (MEDIMMUNE, LLC, priority 2019, published 2020)", "key": {"[1]": {"system": "EGFRm NSCLC", "details": "ATLANTIC trial, comparison for EGFRm NSCLC; cited from earlier work"}, "[2]": {"test": "GLP 5-week repeat IV bolus dose toxicity study in CD-1 mice", "assay_type": "in vivo", "experimental": "(§1) Mouse and cynomolgus monkey were selected as pharmacologically relevant species for evaluation of the toxicity of oleclumab. […] Systemic and local toxicities of oleclumab were evaluated in Good Laboratory Practice (GLP) toxicity studies in CD-1 mice (5-week, repeat intravenous [IV] bolus dose, once every 4 days, total 9 doses) at 0 mg/kg, 100 mg/kg or 200 mg/kg and cynomolgus monkeys (5-week, repeat IV 30-minute infusion dose, once weekly, total 5 doses) at 0 mg/kg, 30.5 mg/kg, 103.7 or 300.7 mg/kg."}, "[3]": {"test": "GLP 5-week repeat IV infusion toxicity study in cynomolgus monkeys", "assay_type": "in vivo", "experimental": "as §1"}, "[4]": {"system": "human tissue panel"}, "[5]": {"system": "blood or peripheral blood mononuclear cell from healthy donors", "test": "human in vitro cytokine release assays", "assay_type": "cell-based", "details": "in solution or immobilized on plastic wells by dry-coating", "experimental": "The ability of oleclumab (alone or in combination with durvalumab) to induce cytokine release was evaluated in human in vitro assays using blood or peripheral blood mononuclear cell from healthy donors."}, "[6]": {"system": "exogenous antigen (KLH) response", "test": "single dose cynomolgus monkey study: exogenous antigen (KLH) response", "assay_type": "in vivo, cynomolgus monkeys", "details": "single IV 1, 10 or 107.8 mg/kg", "experimental": "(§2) Five male cynomolgus monkeys were administered a single IV bolus dose of oleclumab at a dose of 0 mg/kg, 1 mg/kg, 10 mg/kg or 107.8 mg/kg. Serum was collected prior to the first dose at 0.08, 0.5, 2, 8 and 24 hours and 2, 3, 5, 7, 10, 14, 21, 28 and 35 days post dosing.\nTo determine immune modulation, the exogenous antigen (KLH) response was measured. The exogenous antigen (KLH) response was determined by first immunizing the monkeys on day 1 with adjuvant free KLH. KLH T cell-dependent antibody response (TDAR) was conducted on days 7, 8, 11, 15, 22, 29, and 36. Ex vivo KLH stimulation of PBMC IFN-γ and IL-2 ELISPOT was determined on days 1, 4, 8, 7, 15, and 22."}, "[7]": {"system": "endogenous pathogen response (EBV, CMV)", "test": "single dose cynomolgus monkey study: endogenous pathogen response", "assay_type": "in vivo, cynomolgus monkeys", "details": "single IV 1, 10 or 107.8 mg/kg", "experimental": "as §2\nThe endogenous pathogen response was also investigated by endogenous pathogen verification. Endogenous pathogen antibodies were measured using chemiluminescent ELISA on days 1, 8, 14, 15, and 29 and endogenous pathogen T cell IFN-γ ELISPOT was measured on days −14 and 29. LCV (monkey homologue of EBV) was detectable at low levels in most cynomolgus monkeys (FIG. 4)."}, "[8]": {"target": "T1, CD73 (Homo sapiens, UniProt P21589)", "T1 construct": "from tissue; host or cells: patients' serum, peripheral T cells and tumour biopsies", "T1 sequence (P21589 27-549)": "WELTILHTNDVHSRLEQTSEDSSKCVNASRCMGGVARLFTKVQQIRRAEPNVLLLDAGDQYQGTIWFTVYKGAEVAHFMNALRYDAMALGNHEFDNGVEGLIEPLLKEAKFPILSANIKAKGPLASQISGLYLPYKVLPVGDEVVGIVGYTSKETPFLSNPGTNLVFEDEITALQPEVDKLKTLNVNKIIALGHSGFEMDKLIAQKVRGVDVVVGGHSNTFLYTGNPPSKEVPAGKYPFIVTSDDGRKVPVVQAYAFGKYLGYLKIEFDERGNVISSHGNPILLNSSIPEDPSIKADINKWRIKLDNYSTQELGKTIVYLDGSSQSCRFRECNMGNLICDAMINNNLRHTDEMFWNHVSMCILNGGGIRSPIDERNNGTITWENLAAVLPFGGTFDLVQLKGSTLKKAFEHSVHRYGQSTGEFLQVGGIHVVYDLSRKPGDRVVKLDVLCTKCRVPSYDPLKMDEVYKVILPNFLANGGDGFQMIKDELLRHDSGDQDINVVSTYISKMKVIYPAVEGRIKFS", "test": "pharmacokinetic/pharmacodynamic model and human dose prediction", "details": "determined from tumor suppression data in syngeneic mice", "source_text": "A two-compartment model with linear and target-mediated drug disposition clearance was used to adequately describe the MEDI9447 serum concentration profiles. This model was used to describe the monkey pharmacokinetic data and then resulting parameters were allometrically scaled to humans to predict doses using simulation. (See Example 2.)\nFIGS. 6A and 6B show cynomolgus pharmacokinetic modeling and human dose prediction. Cynomolgus serum MEDI9447 concentration profiles (FIG. 6A) were described adequately all three different dose levels by a non-linear model shown schematically in (FIG. 5). Following allometric scaling of the pharmacokinetics parameters from this model, human serum concentration profiles were simulated (FIG. 6B). […] (See Example 2.)\nOleclumab dose selection was based on nonclinical data and clinical safety margins based on nonclinical safety data as described above for mice and monkeys. The pharmacologically driven starting dose level of 5 mg/kg oleclumab was anticipated to have 98% to 91% saturation of CD73 in the first dosing interval (peak and trough, respectively). […] The dose-escalation scheme in this study was designed to achieve higher and more sustained suppression of CD73 target, while maintaining adequate safety margins. […]"}, "[9]": {"test": "Phase 1 study, pharmacokinetics and immunogenicity of oleclumab", "assay_type": "in vivo", "details": "human", "experimental": "(§3) Safety was assessed by the presence of adverse events (AEs), serious adverse events (SAEs), DLTs, and changes from baseline in laboratory parameters, vital signs, and electrocardiogram results. The endpoints for assessment of antitumor activity included objective response (OR), disease control (DC), duration of response (DoR), progression-free survival (PFS), and overall survival (OS). RECIST v1.1 was used for assessment of tumor response. Pharmacokinetic parameters included, but were not limited to, maximum observed concentration, area under the concentration time curve, clearance, and terminal half-life. The endpoints for assessment of immunogenicity of oleclumab and durvalumab included the number and percentage of subjects who developed detectable anti-drug antibodies and the endpoints for assessment of pharmacodynamic activity included assessment of target expression (e.g., CD73, PD-L1) in tumor biopsy specimens.\n(§4) In the oleclumab monotherapy dose-escalation arm, sequential cohorts of 3 to 6 subjects each received 1 of 4 dose levels of oleclumab (5, 10, 20, or 40 mg/kg) via IV infusion Q2W unless the maximum tolerated dose (MTD) was reached before all dose-escalation cohorts were completed (FIG. 8). In the oleclumab/durvalumab combination therapy dose-escalation arm, sequential cohorts of 3 to 6 subjects each received 1 of 4 dose levels of oleclumab (5, 10, 20, or 40 mg/kg) and a single dose level of 10 mg/kg durvalumab via IV infusion Q2W, unless the MTD was reached before all dose-escalation cohorts were completed (FIG. 8). If the MTD of oleclumab was exceeded at the 5 mg/kg dose level in the monotherapy or combination therapy arm, a lower dose level of 2 mg/kg oleclumab was explored in that arm.\nThe following PK data is based on a total of 97 subjects following treatment with oleclumab 5 to 40 mg/kg Q2W administered either as monotherapy (n=40) or in combination with durvalumab at 10 mg/kg Q2W (n=57). […] Serum exposures were similar when oleclumab was administered either alone or in combination with durvalumab."}, "[10]": {"target": "T1, CD73", "test": "Phase 1 study, pharmacodynamics (soluble, T cell and tumor CD73)", "assay_type": "in vivo", "details": "for CD73 surface expression on peripheral T cells (MFI, percent CD73+ CD4 and CD8 cells): human", "experimental": "as §3, §4"}, "[11]": {"details": "cynomolgus monkey, in vivo, 300.7 mg/kg"}}, "note": "“Also recorded” adds a separate entry of the source.", "data": [{"substance": "durvalumab: antibody that selectively binds PD-L1 and blocks the binding of PD-L1 to the PD-1 and CD80 receptors", "values": [{"measurement": "ORR, durvalumab monotherapy", "setting": "[1]", "value": 9.8, "unit": "%"}]}, {"substance": "oleclumab: human immunoglobulin G1 lambda mAb that selectively binds to and inhibits the ectonucleotidase activity of CD73; VL SEQ ID NO: 1, VH SEQ ID NO: 2", "values": [{"measurement": "no-observed-adverse-effect level (NOAEL)", "setting": "[2]; CD-1 mice, highest dose tested", "value": 200, "unit": "mg/kg/dose"}, {"measurement": "AUC0-96hr", "setting": "[2]; mouse, in vivo, 200 mg/kg", "value": "229,000 μg·hr/mL"}, {"measurement": "Cmax", "setting": "[2]; mouse, in vivo, 200 mg/kg", "value": "6,200 μg/mL"}, {"measurement": "effects on safety pharmacology endpoints (ECGs, blood pressure, behavioral examinations)", "setting": "[3]; cynomolgus monkey, in vivo", "value": "no oleclumab-related effects"}, {"measurement": "AUC0-168.5hr", "setting": "[3]; [11]", "value": "834,000 μg·hr/mL"}, {"measurement": "Cmax", "setting": "[3]; [11]", "value": "11,000 μg/mL"}, {"measurement": "no-observed-adverse-effect level (NOAEL)", "setting": "[3]; cynomolgus monkeys, highest dose tested", "value": 300.7, "unit": "mg/kg/dose"}, {"measurement": "tissue cross reactivity staining", "setting": "[4]", "value": "staining with oleclumab was observed in multiple cell types"}, {"measurement": "cytokine release", "setting": "[5]", "value": "did not induce cytokine release"}, {"measurement": "T cell responses to ex vivo KLH stimulation (IFN-γ, IL-2 ELISPOT of PBMC)", "setting": "[6]", "value": "did not vary with oleclumab treatment; also recorded: did not increase"}, {"measurement": "anti-KLH IgM and IgG antibody responses (KLH TDAR)", "setting": "[6]", "value": "did not show dose-dependent increase; also recorded: did not enhance"}, {"measurement": "responses to exogenous antigen (KLH)", "setting": "[6]", "value": "did not enhance responses"}, {"measurement": "IgG titers to EBV gp125 and CMV gB", "setting": "[7]", "value": "did not vary with oleclumab treatment"}, {"measurement": "T cell responses to EBV BZLF1 and inactivated human CMV", "setting": "[7]", "value": "did not vary consistently with oleclumab treatment"}, {"measurement": "serum exposure target", "setting": "[8]", "value": 52, "unit": "µg/mL"}, {"measurement": "anti-drug antibodies (ADAs)", "setting": "[9]", "value": "No ADAs were detected"}, {"measurement": "estimated effective half-life in the dosing duration", "setting": "[9]", "value": "~13", "unit": "days"}, {"measurement": "serum concentration expected to saturate >99% CD73", "setting": "[9]", "value": "above 40 μg/mL"}, {"measurement": "serum exposures alone versus in combination with durvalumab", "setting": "[9]; 5 to 40 mg/kg Q2W", "value": "similar"}, {"measurement": "increase of Ctrough with dose", "setting": "[9]; from oleclumab 5 to 10 mg/kg", "value": "more than proportional"}, {"measurement": "increase of Ctrough with dose", "setting": "[9]; from oleclumab 10 to 40 mg/kg", "value": "approximately dose proportional"}, {"measurement": "PK linearity at lowest dose", "setting": "[9]; oleclumab 5 mg/kg Q2W, monotherapy and combination cohorts", "value": "nonlinear PK"}, {"measurement": "PK linearity at higher doses", "setting": "[9]; oleclumab 10 mg/kg and higher Q2W", "value": "Linear PK"}, {"measurement": "CD73 staining tumor cells by IHC", "setting": "[10]; 40 mg/kg dose, 20 days after treatment initiation", "value": "decrease in CD73 staining tumor cells"}, {"measurement": "total CD4 and CD8 cells", "setting": "[10]; human peripheral blood, across all doses", "value": "without a concomitant decrease"}, {"measurement": "CD73 enzymatic activity in tumor microenvironment", "setting": "[10]; human tumor staining", "value": "inhibited CD73 enzymatic activity"}, {"measurement": "CD73 surface expression on peripheral T cells (MFI, percent CD73+ CD4 and CD8 cells)", "setting": "[10]; across all doses", "value": "decreased CD73 on peripheral T cells"}, {"measurement": "CD73 surface expression on peripheral T cells (MFI, percent CD73+ CD4 and CD8 cells)", "setting": "[10]; across all doses, listed as Oleclumab", "value": "decreased CD73 surface expression"}, {"measurement": "free serum soluble CD73 levels", "setting": "[10]; majority of subjects at all times after the first dose, limit of detection", "value": "< 0.25", "unit": "ng/mL"}, {"measurement": "patients with decreased tumoral CD73 expression", "setting": "[10]; oleclumab alone, patients who expressed >5% 2+/3+ CD73 at baseline", "value": "5/9"}, {"measurement": "CD8+ TILs", "setting": "[10]; samples with decreased tumoral CD73", "value": "increasing CD8+ TILs in all 5 samples"}]}]}
